The values that follow come from publication PMC3776929 (Cell, 2013).

Experiment [1] deals with T1, Swr1, FLAG-tagged catalytic subunit of the SWR1 complex (S. cerevisiae, UniProt Q05471 1-1514).
T1 construct: Swr1, catalytic ATPase subunit of the SWR1 complex, S. cerevisiae; HSA domain in the N-terminal half, split ATPase domain with long insert in the C-terminal half; also called Swr1-3xFLAG; Swr1 ATPase
Nature of the experiment: cross-linking; ∼45 μg affinity-purified SWR1 cross-linked with 1 mM DSS d0/d12 in SWR1 buffer, 37°C, 30 min; trypsin, SEC enrichment, LC-MS/MS, xQuest (CX-MS). To be noted: both partners purified.

For a further experiment, the target named is T2, Swc2 (S. cerevisiae, UniProt Q03388 1-795).
T2 construct: Swc2, C-Module subunit of SWR1, S. cerevisiae; source: endogenous, S. cerevisiae; co-purified in the SWR1 complex
T2 sequence (looked up): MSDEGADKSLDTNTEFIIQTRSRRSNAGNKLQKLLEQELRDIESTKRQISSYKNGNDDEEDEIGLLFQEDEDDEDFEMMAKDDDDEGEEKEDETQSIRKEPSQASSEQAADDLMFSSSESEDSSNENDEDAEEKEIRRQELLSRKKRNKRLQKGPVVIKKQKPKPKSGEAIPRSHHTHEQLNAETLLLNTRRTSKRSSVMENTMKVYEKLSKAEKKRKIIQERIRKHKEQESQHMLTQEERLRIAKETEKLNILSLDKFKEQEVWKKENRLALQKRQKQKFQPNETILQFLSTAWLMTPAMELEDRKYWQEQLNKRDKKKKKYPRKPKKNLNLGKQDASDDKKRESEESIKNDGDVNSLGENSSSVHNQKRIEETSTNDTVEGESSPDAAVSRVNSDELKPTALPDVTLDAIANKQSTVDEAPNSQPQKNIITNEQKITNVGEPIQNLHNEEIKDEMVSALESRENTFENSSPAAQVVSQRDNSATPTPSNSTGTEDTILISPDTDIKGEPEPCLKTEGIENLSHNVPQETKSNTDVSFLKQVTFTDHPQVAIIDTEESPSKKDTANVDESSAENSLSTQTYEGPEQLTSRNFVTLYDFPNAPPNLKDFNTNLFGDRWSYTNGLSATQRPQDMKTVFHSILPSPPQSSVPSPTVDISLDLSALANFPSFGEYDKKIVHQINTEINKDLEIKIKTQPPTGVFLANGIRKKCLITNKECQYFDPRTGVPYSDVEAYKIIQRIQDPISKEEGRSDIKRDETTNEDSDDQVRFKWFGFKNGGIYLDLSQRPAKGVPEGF
Described as above. Conditions: both partners purified.

A further experiment has as its target T3, Ino80 (UniProt P53115 1-1489).
T3 construct: Ino80, catalytic subunit of the INO80 complex
Kind of experiment: co-IP; INO80 complex purified by affinity and glycerol gradient, resolved on 4%-12% Bis-Tris gels in MOPS buffer; band intensities normalised for protein size. Conditions: partners not purified.

Experiment [2] has as its target T1, Swr1, FLAG-tagged catalytic subunit of …. Nature of the experiment: co-IP; FLAG affinity purification of SWR1 (or a subcomplex) from S. cerevisiae, eluted with 3× FLAG peptide; SDS-PAGE (4%-12% Bis-Tris), Coomassie or SYPRO Orange stain; band intensities normalised for protein size for the stoichiometry. Conditions: partners not purified.
The next experiment addresses T4, Arp4 (S. cerevisiae, UniProt P80428 1-489).
T4 construct: Arp4, actin-related protein, N-Module subunit of SWR1, S. cerevisiae; source: endogenous, S. cerevisiae; co-purified in the SWR1 complex
T4 sequence (looked up): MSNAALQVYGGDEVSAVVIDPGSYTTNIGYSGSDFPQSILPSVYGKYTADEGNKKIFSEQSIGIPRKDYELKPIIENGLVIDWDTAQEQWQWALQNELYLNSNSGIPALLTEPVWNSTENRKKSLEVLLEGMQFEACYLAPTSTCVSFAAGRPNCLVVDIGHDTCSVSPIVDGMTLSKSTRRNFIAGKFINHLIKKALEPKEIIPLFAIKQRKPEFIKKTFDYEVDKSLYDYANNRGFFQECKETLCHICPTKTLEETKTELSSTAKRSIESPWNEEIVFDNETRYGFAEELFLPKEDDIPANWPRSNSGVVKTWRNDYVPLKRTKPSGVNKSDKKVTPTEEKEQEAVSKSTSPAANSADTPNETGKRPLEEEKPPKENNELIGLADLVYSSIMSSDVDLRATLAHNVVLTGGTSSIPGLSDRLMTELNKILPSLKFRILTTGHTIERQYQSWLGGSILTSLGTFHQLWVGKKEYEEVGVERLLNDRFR
Kind of experiment: cross-linking; ∼45 μg affinity-purified SWR1 cross-linked with 1 mM DSS d0/d12 in SWR1 buffer, 37°C, 30 min; trypsin, SEC enrichment, LC-MS/MS, xQuest (CX-MS). To be noted: both partners purified.

T1 sequence (Q05471 whole entry, the tested form may be a part, one chain of several): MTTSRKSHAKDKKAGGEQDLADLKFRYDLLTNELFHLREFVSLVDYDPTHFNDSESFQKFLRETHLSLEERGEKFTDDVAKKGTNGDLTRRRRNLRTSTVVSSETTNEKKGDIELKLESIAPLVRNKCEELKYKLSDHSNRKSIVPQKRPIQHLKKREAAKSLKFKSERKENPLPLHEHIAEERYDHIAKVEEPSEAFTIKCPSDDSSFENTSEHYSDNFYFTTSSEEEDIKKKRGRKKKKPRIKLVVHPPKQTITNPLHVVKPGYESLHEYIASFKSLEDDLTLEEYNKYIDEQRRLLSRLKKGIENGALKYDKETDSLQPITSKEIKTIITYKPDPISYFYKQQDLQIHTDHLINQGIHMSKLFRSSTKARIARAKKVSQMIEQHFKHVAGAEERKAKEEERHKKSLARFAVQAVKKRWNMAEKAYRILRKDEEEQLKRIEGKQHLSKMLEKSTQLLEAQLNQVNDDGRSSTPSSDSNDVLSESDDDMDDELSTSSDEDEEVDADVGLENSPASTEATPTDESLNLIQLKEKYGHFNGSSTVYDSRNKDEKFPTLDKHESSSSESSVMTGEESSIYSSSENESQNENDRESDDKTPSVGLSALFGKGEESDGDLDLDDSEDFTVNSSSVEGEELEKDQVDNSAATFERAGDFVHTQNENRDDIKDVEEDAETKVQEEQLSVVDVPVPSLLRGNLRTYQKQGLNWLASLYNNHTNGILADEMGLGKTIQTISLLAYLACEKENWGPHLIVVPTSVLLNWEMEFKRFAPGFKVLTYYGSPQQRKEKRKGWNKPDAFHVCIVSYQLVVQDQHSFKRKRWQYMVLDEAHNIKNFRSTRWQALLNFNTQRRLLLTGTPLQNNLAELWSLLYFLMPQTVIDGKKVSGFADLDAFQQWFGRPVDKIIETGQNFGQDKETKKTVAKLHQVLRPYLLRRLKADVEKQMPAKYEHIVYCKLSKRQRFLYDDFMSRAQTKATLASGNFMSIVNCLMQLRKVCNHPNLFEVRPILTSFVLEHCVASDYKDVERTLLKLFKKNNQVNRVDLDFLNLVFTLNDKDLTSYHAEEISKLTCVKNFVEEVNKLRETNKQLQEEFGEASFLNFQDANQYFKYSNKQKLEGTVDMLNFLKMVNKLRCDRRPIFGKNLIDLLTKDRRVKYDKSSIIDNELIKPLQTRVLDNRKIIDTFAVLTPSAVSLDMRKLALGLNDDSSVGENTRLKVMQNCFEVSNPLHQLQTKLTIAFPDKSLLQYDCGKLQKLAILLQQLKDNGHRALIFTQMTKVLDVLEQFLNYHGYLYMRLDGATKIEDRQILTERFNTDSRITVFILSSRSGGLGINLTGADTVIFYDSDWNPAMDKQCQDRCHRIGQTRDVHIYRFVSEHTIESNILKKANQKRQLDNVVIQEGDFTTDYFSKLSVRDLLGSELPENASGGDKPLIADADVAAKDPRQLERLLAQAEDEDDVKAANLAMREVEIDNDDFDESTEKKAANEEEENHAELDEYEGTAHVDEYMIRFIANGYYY
T3 sequence (P53115 whole entry): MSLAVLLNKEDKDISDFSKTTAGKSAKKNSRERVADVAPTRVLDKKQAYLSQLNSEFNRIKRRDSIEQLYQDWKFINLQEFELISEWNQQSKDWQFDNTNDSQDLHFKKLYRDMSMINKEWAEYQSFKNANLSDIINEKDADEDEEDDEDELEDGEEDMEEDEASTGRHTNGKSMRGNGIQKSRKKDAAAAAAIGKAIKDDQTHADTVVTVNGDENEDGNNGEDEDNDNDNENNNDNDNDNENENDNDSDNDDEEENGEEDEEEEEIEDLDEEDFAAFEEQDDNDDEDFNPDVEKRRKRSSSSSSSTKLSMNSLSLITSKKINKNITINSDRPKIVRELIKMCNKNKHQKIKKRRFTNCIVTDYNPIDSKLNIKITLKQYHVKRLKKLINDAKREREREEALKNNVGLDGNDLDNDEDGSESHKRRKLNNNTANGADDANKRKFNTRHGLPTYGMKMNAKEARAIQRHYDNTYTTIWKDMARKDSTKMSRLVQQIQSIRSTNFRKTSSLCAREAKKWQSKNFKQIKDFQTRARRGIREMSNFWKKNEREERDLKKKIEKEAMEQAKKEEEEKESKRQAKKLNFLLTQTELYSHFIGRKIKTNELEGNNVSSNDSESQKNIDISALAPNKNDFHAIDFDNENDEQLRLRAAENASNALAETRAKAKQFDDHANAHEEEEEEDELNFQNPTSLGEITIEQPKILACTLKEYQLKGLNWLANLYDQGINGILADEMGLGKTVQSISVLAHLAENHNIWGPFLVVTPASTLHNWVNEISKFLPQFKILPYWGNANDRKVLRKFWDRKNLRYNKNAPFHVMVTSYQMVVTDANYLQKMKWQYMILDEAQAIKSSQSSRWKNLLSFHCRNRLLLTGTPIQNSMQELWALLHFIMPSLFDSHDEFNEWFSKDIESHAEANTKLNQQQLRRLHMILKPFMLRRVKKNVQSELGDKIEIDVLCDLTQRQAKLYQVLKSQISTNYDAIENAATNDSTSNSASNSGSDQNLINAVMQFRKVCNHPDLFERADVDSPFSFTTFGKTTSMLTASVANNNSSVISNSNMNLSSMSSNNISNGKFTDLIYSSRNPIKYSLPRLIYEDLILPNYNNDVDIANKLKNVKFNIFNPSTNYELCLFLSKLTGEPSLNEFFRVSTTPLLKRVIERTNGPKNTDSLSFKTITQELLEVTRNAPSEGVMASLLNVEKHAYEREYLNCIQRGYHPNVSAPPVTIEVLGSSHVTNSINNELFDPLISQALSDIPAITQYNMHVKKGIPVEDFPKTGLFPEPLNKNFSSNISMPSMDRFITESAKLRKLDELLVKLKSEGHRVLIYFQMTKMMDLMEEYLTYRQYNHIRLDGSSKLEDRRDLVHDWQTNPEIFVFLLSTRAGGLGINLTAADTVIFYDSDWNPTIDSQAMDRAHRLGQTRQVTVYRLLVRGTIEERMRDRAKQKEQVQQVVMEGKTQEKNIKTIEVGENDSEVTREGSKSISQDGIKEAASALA

B1: Swc3 (natural protein, S. cerevisiae, UniProt P31376 1-625, looked up)
chain: MPAVLRTRSKESSIEQKPASRTRTRSRRGKRGRDDDDDDDDEESDDAYDEVGNDYDEYASRAKLATNRPFEIVAGLPASVELPNYNSSLTHPQSIKNSGVLYDSLVSSRRTWVQGEMFELYWRRPKKIVSESTPAATESPTSGTIPLIRDKMQKMCDCVMSGGPHTFKVRLFILKNDKIEQKWQDEQELKKKEKELKRKNDAEAKRLRMEERKRQQMQKKIAKEQKLQLQKENKAKQKLEQEALKLKRKEEMKKLKEQNKNKQGSPSSSMHDPRMIMNLNLMAQEDPKLNTLMETVAKGLANNSQLEEFKKFIEIAKKRSLEENPVNKRPSVTTTRPAPPSKAKDVAEDHRLNSITLVKSSKTAATEPEPKKADDENAEKQQSKEAKTTAESTQVDVKKEEEDVKEKGVKSEDTQKKEDNQVVPKRKRRKNAIKEDKDMQLTAFQQKYVQGAEIILEYLEFTHSRYYLPKKSVVEFLEDTDEIIISWIVIHNSKEIEKFKTKKIKAKLKADQKLNKEDAKPGSDVEKEVSFNPLFEADCPTPLYTPMTMKLSGIHKRFNQIIRNSVSPMEEVVKEMEKILQIGTRLSGYNLWYQLDGYDDEALSESLRFELNEWEHAMRSRRHKR
notes: Swc3, C-Module subunit of SWR1, S. cerevisiae; source: endogenous, S. cerevisiae; co-purified in the SWR1 complex
With B1, the binding result in experiment [1] is “binds”.

B2: Bdf1 (natural protein, S. cerevisiae, UniProt P35817 1-686, looked up)
chain: MTDITPVQNDVDVNGNNVNDDVSSNLKRPIDQGDPSNGLAEEENPANNQLHLKKARLDGDALTSSPAGLAENGIEGATLAANGENGYNATGSGAEDEQQGLKKEEGGQGTKQEDLDENSKQELPMEVPKEPAPAPPPEPDMNNLPQNPIPKHQQKHALLAIKAVKRLKDARPFLQPVDPVKLDIPFYFNYIKRPMDLSTIERKLNVGAYEVPEQITEDFNLMVNNSIKFNGPNAGISQMARNIQASFEKHMLNMPAKDAPPVIAKGRRSSAQEDAPIVIRRAQTHNGRPKRTIHPPKSKDIYPYESKKPKSKRLQQAMKFCQSVLKELMAKKHASYNYPFLEPVDPVSMNLPTYFDYVKEPMDLGTIAKKLNDWQYQTMEDFERDVRLVFKNCYTFNPDGTIVNMMGHRLEEVFNSKWADRPNLDDYDSDEDSRTQGDYDDYESEYSESDIDETIITNPAIQYLEEQLARMKVELQQLKKQELEKIRKERRLARGSKKRGKRSKGRSGSKNASSKGRRDKKNKLKTVVTYDMKRIITERINDLPTSKLERAIDIIKKSMPNISEDDEVELDLDTLDNHTILTLYNTFFRQYESSSGASNGLDGTSGVTRDASSLSPTSAGSRKRRSKALSQEEQSRQIEKIKNKLAILDSASPLSQNGSPGQIQSAAHNGFSSSSDDDVSSESEEE
notes: Bdf1, N-Module subunit of SWR1, S. cerevisiae; source: endogenous, S. cerevisiae; co-purified in the SWR1 complex
With B2, the binding result with Swc2 is “binds”.

B3: Rvb2 (natural protein, S. cerevisiae, UniProt Q12464 1-471, looked up)
chain: MSIQTSDPNETSDLKSLSLIAAHSHITGLGLDENLQPRPTSEGMVGQLQARRAAGVILKMVQNGTIAGRAVLVAGPPSTGKTALAMGVSQSLGKDVPFTAIAGSEIFSLELSKTEALTQAFRKSIGIKIKEETELIEGEVVEIQIDRSITGGHKQGKLTIKTTDMETIYELGNKMIDGLTKEKVLAGDVISIDKASGKITKLGRSFARSRDYDAMGADTRFVQCPEGELQKRKTVVHTVSLHEIDVINSRTQGFLALFTGDTGEIRSEVRDQINTKVAEWKEEGKAEIVPGVLFIDEVHMLDIECFSFINRALEDEFAPIVMMATNRGVSKTRGTNYKSPHGLPLDLLDRSIIITTKSYNEQEIKTILSIRAQEEEVELSSDALDLLTKTGVETSLRYSSNLISVAQQIAMKRKNNTVEVEDVKRAYLLFLDSARSVKYVQENESQYIDDQGNVQISIAKSADPDAMDTTE
notes: Rvb2, AAA+ ATPase, S. cerevisiae (YPL235W); also called AAA+ ATPase Rvb2; source: endogenous, S. cerevisiae; co-purified in the SWR1 and INO80 complexes
In general, stoichiometry N refers to a count of units in the complex or per binding partner. B3: the “stoichiometry N” value (with Ino80; in experiment [2]) was around 3 each time.

B4: Rvb1 (natural protein, S. cerevisiae, UniProt Q03940 1-463, looked up)
chain: MVAISEVKENPGVNSSNSGAVTRTAAHTHIKGLGLDESGVAKRVEGGFVGQIEAREACGVIVDLIKAKKMSGRAILLAGGPSTGKTALALAISQELGPKVPFCPLVGSELYSVEVKKTETLMENFRRAIGLRIKETKEVYEGEVTELTPEDAENPLGGYGKTISHVIVGLKSAKGTKTLRLDPTIYESIQREKVSIGDVIYIEANTGAVKRVGRSDAYATEFDLETEEYVPLPKGEVHKKKEIVQDVTLHDLDVANARPQGGQDVISMMGQLLKPKKTEITEKLRQEVNKVVAKYIDQGVAELIPGVLFIDEVNMLDIEIFTYLNKALESNIAPVVVLASNRGMTTVRGTEDVISPHGVPPDLIDRLLIVRTLPYDKDEIRTIIERRATVERLQVESSALDLLATMGTETSLRYALQLLAPCGILAQTSNRKEIVVNDVNEAKLLFLDAKRSTKILETSANYL
notes: Rvb1, AAA+ ATPase, S. cerevisiae (YDR190C); also called AAA+ ATPase Rvb1; source: endogenous, S. cerevisiae; co-purified in the SWR1 and INO80 complexes
Turning to B4, the “stoichiometry N” value (in the experiment with Ino80; in experiment [2]) was around 3 throughout. In addition, the binding result with Arp4 was “binds”.

B5: Swc4 (natural protein, S. cerevisiae, UniProt P53201 1-476, looked up)
chain: MSSSDIFDVLNIKQKSRSPTNGQVSVPSSSAANRPKPQVTGMQRELFNLLGENQPPVVIKSGNNFKEKMLSTSKPSPWSFVEFKANNSVTLRHWVKGSKELIGDTPKESPYSKFNQHLSIPSFTKEEYEAFMNENEGTQKSVESEKNHNENFTNEKKDESKNSWSFEEIEYLFNLCKKYDLRWFLIFDRYSYNNSRTLEDLKEKFYYTCRNYFKASDPSNPLLSSLNFSAEKEIERKKYLQRLLSRSAAEIAEEEALVVESKKFEMAAKRTLAERESLLRLLDSPHSDQTITQYLTSQGMSQLYNALLADKTRKRKHDLNIPENPWMKQQQQFAQHRQLQQLNVKKSEVKENLSPKKTKRQRQEMQTALKRKSESAYAEQLLKDFNSDERKALGVITHGEKLSPGVYLRSTKLSTFKPALQNKILAILQELSLPSRPVMPSFDVMERQEELLKKINTLIDLKKHVDKYEAGMSITK
notes: Swc4, N-Module subunit of SWR1, S. cerevisiae; source: endogenous, S. cerevisiae; co-purified in the SWR1 complex
For the molecule B5, the binding result (in experiment [1]; in the experiment with Arp4) was “binds” in each case.
